Test results as given in patent US20170015742A1 (published 2017).

Assays:
Human VEGF-A 165 = target: T1, Human VEGF-A 165 (human, UniProt P15692 207-395); experiment: SPR (Biacore), method of Example 1.1
T1 construct: also called hVEGF165
Procedure: (§1) Unreacted moieties on the biosensor surface were blocked with ethanolamine. For kinetic analysis, rate equations derived from the 1:1 Langmuir binding model were fitted simultaneously to multiple antigen injections (using global fit analysis) with the use of Scrubber 2 (BioLogic Software), Biacore Biaevaluation 4.0.1 software or Biacore T100 Evaluation software. Purified antibodies or DVD-Ig molecules were diluted in running buffer for capture across goat anti-human Fc reaction surfaces. Antibodies or DVD-Ig molecules to be captured as a ligand (1 μg/ml) were injected over reaction matrices at a flow rate of 10 μl/minute. During the assay, all measurements were referenced against the capture surface alone (i.e., with no captured antibody or DVD-Ig molecule). […] The equilibrium dissociation constant KD (M) of the reaction between antibodies and the target antigen was then calculated from the kinetic rate constants by the following formula: KD=Koff/Kₒₙ. Binding was recorded as a function of time and kinetic rate constants were calculated. In this assay, on-rates as fast as 10⁶M⁻¹s⁻¹ and off-rates as slow as 10⁻⁶ s⁻¹ could be measured.

Human PDGF-BB = target: T2, Human PDGF-BB (human, UniProt P01127 82-190); experiment: SPR (Biacore), method of Example 1.1
T2 construct: also called hPDGF-BB
T2 sequence (P01127 82-190 limits assumed): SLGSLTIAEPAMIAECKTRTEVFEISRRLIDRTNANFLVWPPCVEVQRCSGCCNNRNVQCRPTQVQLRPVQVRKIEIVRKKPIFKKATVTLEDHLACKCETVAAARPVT
Procedure: as §1

T1 sequence (P15692 other isoform, or with tags, fused parts or gaps limits assumed): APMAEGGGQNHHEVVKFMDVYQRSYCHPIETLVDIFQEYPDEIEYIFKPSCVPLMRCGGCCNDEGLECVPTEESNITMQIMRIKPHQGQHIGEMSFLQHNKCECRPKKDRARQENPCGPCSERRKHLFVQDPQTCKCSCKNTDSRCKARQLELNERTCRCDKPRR

Binder | Kd (Human VEGF-A 165) [nM] | kon (Human VEGF-A 165) [M⁻¹ s⁻¹] | Kd (Human PDGF-BB) [nM] | kon (Human PDGF-BB) [M⁻¹ s⁻¹]
CODV015 (bispecific antibody, human IgG1, kappa, L234A L235A, Anti-human VEGF-A/anti-human PDGF-BB cross-over DVD-Ig (CO-DVD-Ig); also called PR-1571827) heavy: EVQLVQSGSELKKPGASVKVSCKASGYTFTNYGMYWVRQAPGQGLEWMGWINTETGKPTYADDFKGRFVFSLDTSVSTAYLQISSLKAEDTAVYYCARTNYYYRSYIFYFDYWGQGTMVTVSSGGGGSGGGEFVLTQSPGTLSLSPGERATLSCERSSGDIGDSYVSWYQQKPGQAPRLVIYADDQRPSGIPDRFSGSGSGTDFTLTISRLEPEDFAVYYCQSYDINIDIVFGGGTKVEIKGGGSGASTKGPSVFPLAPSSKSTSGGTAALGCLVKDYFPEPVTVSWNSGALTSGVHTFPAVLQSSGLYSLSSVVTVPSSSLGTQTYICNVNHKPSNTKVDKKVEPKSCDKTHTCPPCPAPEAAGGPSVFLFPPKPKDTLMISRTPEVTCVVVDVSHEDPEVKFNWYVDGVEVHNAKTKPREEQYNSTYRVVSVLTVLHQDWLNGKEYKCKVSNKALPAPIEKTISKAKGQPREPQVYTLPPSREEMTKNQVSLTCLVKGFYPSDIAVEWESNGQPENNYKTTPPVLDSDGSFFLYSKLTVDKSRWQQGNVFSCSVMHEALHNAYTQKSLSLSPGK light: EVTLRESGPALVKPTQTLTLTCTFSGFSLSTYGMGVGWIRQPPGKALEWLANIWWDDDKYYNPSLKNRLTISKDTSKNQVVLTMTNMDPVDTATYYCARIESIGTTYSFDYWGQGTMVTVSSGGGGSGGGDTVLTQSPATLSLSPGERATLSCRASESVSTHMHWYQQKPGQAPRLLIYGASNLESGVPARFSGSGSGTDFTLTISSLEPEDFAVYFCQQSWNDPFTFGQGTKLEIKGGSRTVAAPSVFIFPPSDEQLKSGTASVVCLLNNFYPREAKVQWKVDNALQSGNSQESVTEQDSKDSTYSLSSTLTLSKADYEKHKVYACEVTHQGLSSPVTKSFNRGEC | 0.024 | 2.7e+06 | 0.0013 | 7e+07
CODV021 (bispecific antibody, human IgG1, kappa, L234A L235A, Anti-human VEGF-A/anti-human PDGF-BB cross-over DVD-Ig (CO-DVD-Ig); also called PR-1577053) heavy: EVQLVQSGSELKKPGASVKVSCKASGYTFTNYGMYWVRQAPGQGLEWMGWINTETGKPTYADDFKGRFVFSLDTSVSTAYLQISSLKAEDTAVYYCARTNYYYRSYIFYFDYWGQGTMVTVSSGGGGSGGGEFVLTQSPGTLSLSPGERATLSCERSSGDIGESYVSWYQQKPGQAPRLVIYADDQRPSGIPDRFSGSGSGTDFTLTISRLEPEDFAVYYCQSYDINIDIVFGGGTKVEIKGGGSGASTKGPSVFPLAPSSKSTSGGTAALGCLVKDYFPEPVTVSWNSGALTSGVHTFPAVLQSSGLYSLSSVVTVPSSSLGTQTYICNVNHKPSNTKVDKKVEPKSCDKTHTCPPCPAPEAAGGPSVFLFPPKPKDTLMISRTPEVTCVVVDVSHEDPEVKFNWYVDGVEVHNAKTKPREEQYNSTYRVVSVLTVLHQDWLNGKEYKCKVSNKALPAPIEKTISKAKGQPREPQVYTLPPSREEMTKNQVSLTCLVKGFYPSDIAVEWESNGQPENNYKTTPPVLDSDGSFFLYSKLTVDKSRWQQGNVFSCSVMHEALHNAYTQKSLSLSPGK light: EVTLRESGPALVKPTQTLTLTCTFSGFSLSTYGMGVGWIRQPPGKALEWLANIWWDDDKYYNPSLKNRLTISKDTSKNQVVLTMTNMDPVDTATYYCARIESIGTTYSFDYWGQGTMVTVSSGGGGSGGGDTVLTQSPATLSLSPGERATLSCRASESVSTHMHWYQQKPGQAPRLLIYGASNLESGVPARFSGSGSGTDFTLTISSLEPEDFAVYFCQQSWNDPFTFGQGTKLEIKGGSRTVAAPSVFIFPPSDEQLKSGTASVVCLLNNFYPREAKVQWKVDNALQSGNSQESVTEQDSKDSTYSLSSTLTLSKADYEKHKVYACEVTHQGLSSPVTKSFNRGEC | 0.018 | 3.8e+06 | 0.0019 | 6.1e+07

The remaining binders from weak to strong by Kd (Human VEGF-A 165), led by results:

Kd (Human VEGF-A 165) [nM] | kon (Human VEGF-A 165) [M⁻¹ s⁻¹] | Kd (Human PDGF-BB) [nM] | kon (Human PDGF-BB) [M⁻¹ s⁻¹] | Binder
0.036 | 2.2e+06 | 0.0024 | 5.5e+07 | CODV014 (bispecific antibody, human IgG1, kappa, L234A L235A, Anti-human VEGF-A/anti-human PDGF-BB cross-over DVD-Ig (CO-DVD-Ig); also called PR-1571826) heavy: EVQLVQSGSELKKPGASVKVSCKASGYTFTNYGMYWVRQAPGQGLEWMGWINTETGKPTYADDFKGRFVFSLDTSVSTAYLQISSLKAEDTAVYYCARTNYYYRSYIFYFDYWGQGTMVTVSSGGGGSEFVLTQSPGTLSLSPGERATLSCERSSGDIGDSYVSWYQQKPGQAPRLVIYADDQRPSGIPDRFSGSGSGTDFTLTISRLEPEDFAVYYCQSYDINIDIVFGGGTKVEIKGGSASTKGPSVFPLAPSSKSTSGGTAALGCLVKDYFPEPVTVSWNSGALTSGVHTFPAVLQSSGLYSLSSVVTVPSSSLGTQTYICNVNHKPSNTKVDKKVEPKSCDKTHTCPPCPAPEAAGGPSVFLFPPKPKDTLMISRTPEVTCVVVDVSHEDPEVKFNWYVDGVEVHNAKTKPREEQYNSTYRVVSVLTVLHQDWLNGKEYKCKVSNKALPAPIEKTISKAKGQPREPQVYTLPPSREEMTKNQVSLTCLVKGFYPSDIAVEWESNGQPENNYKTTPPVLDSDGSFFLYSKLTVDKSRWQQGNVFSCSVMHEALHNAYTQKSLSLSPGK light: EVTLRESGPALVKPTQTLTLTCTFSGFSLSTYGMGVGWIRQPPGKALEWLANIWWDDDKYYNPSLKNRLTISKDTSKNQVVLTMTNMDPVDTATYYCARIESIGTTYSFDYWGQGTMVTVSSGGGGSGGGDTVLTQSPATLSLSPGERATLSCRASESVSTHMHWYQQKPGQAPRLLIYGASNLESGVPARFSGSGSGTDFTLTISSLEPEDFAVYFCQQSWNDPFTFGQGTKLEIKGGGSGRTVAAPSVFIFPPSDEQLKSGTASVVCLLNNFYPREAKVQWKVDNALQSGNSQESVTEQDSKDSTYSLSSTLTLSKADYEKHKVYACEVTHQGLSSPVTKSFNRGEC
0.028 | 2.7e+06 | 0.0015 | 7e+07 | CODV012 (bispecific antibody, human IgG1, kappa, L234A L235A, Anti-human VEGF-A/anti-human PDGF-BB cross-over DVD-Ig (CO-DVD-Ig); also called PR-1571824) heavy: EVQLVQSGSELKKPGASVKVSCKASGYTFTNYGMYWVRQAPGQGLEWMGWINTETGKPTYADDFKGRFVFSLDTSVSTAYLQISSLKAEDTAVYYCARTNYYYRSYIFYFDYWGQGTMVTVSSGGGGSGGGEFVLTQSPGTLSLSPGERATLSCERSSGDIGDSYVSWYQQKPGQAPRLVIYADDQRPSGIPDRFSGSGSGTDFTLTISRLEPEDFAVYYCQSYDINIDIVFGGGTKVEIKGGGSGASTKGPSVFPLAPSSKSTSGGTAALGCLVKDYFPEPVTVSWNSGALTSGVHTFPAVLQSSGLYSLSSVVTVPSSSLGTQTYICNVNHKPSNTKVDKKVEPKSCDKTHTCPPCPAPEAAGGPSVFLFPPKPKDTLMISRTPEVTCVVVDVSHEDPEVKFNWYVDGVEVHNAKTKPREEQYNSTYRVVSVLTVLHQDWLNGKEYKCKVSNKALPAPIEKTISKAKGQPREPQVYTLPPSREEMTKNQVSLTCLVKGFYPSDIAVEWESNGQPENNYKTTPPVLDSDGSFFLYSKLTVDKSRWQQGNVFSCSVMHEALHNAYTQKSLSLSPGK light: EVTLRESGPALVKPTQTLTLTCTFSGFSLSTYGMGVGWIRQPPGKALEWLANIWWDDDKYYNPSLKNRLTISKDTSKNQVVLTMTNMDPVDTATYYCARIESIGTTYSFDYWGQGTMVTVSSGGGGSGGGDTVLTQSPATLSLSPGERATLSCRASESVSTHMHWYQQKPGQAPRLLIYGASNLESGVPARFSGSGSGTDFTLTISSLEPEDFAVYFCQQSWNDPFTFGQGTKLEIKGGGSGRTVAAPSVFIFPPSDEQLKSGTASVVCLLNNFYPREAKVQWKVDNALQSGNSQESVTEQDSKDSTYSLSSTLTLSKADYEKHKVYACEVTHQGLSSPVTKSFNRGEC
